# Test results as given in article PMC3686692 (PLoS ONE, 2013).
# Legend:
# hemoglobin [1] = assay: Population PK-PD model (modified precursor-dependent lifespan indirect response) of hemoglobin levels; type: in vivo, human; conditions: final PK-PD model
# From the text: (§1) These studies were: AFX01-02 (NCT00109291) [data on file], AFX01-03 (NCT00228449), AFX01-04 (NCT00228436) and AFX01-07 (NCT00434330) [data on file]). Data were also utilized from one Phase 3 study, AFX01-14 (NCT00597584) conducted in hemodialysis patients. All plasma concentration-time data obtained in Phase 2 (with frequent PK and PD sampling scheme) [7, 8, AFX01-2, AFX01-07] and Phase 3 studies, with sparse PK and frequent PD sampling schemes, were used for the development of the PK model.
# The concentration of hemoglobin was measured using a standard laboratory method in a Clinical Laboratory Improvement Amendments certified central laboratory. Baseline weight was used to calculate the dose (in mg/kg). The first order conditional estimation (FOCE) and first-order (FO) method as implemented in NONMEM were used for PK and PK-PD modeling. Model selection criteria included a statistically significant reduction of the objective function value (OFV) (α = 0.05) for nested models, Akaike information criteria for non-nested models, reductions in both residual (σ^2) and inter-subject (ω^2) variability, improvement in the precision of parameter estimates as measured by the percent standard error of the mean (%SEM), and visual examination of standard goodness-of-fit plots. […]
# In the study, baseline erythropoietin levels were not measured in all patients. […]
# A generalized additive modeling (GAM) approach along with graphical analysis (plots of the inter-subject error terms for each parameter [ηi] versus covariates) was used for initial covariate screening and to determine the functional form of the relationship between the covariates and PK and PD parameters of peginesatide. […] The relationship between continuous covariates and PK and PD parameters were evaluated using linear, exponential and power functions as described in Equations 9, 10, and 11 with the covariates centered or scaled at their median values: [drawing 11] […]
# The adequacy of the final PK and PK-PD models was evaluated using a simulation-based prediction-corrected (pc) visual predictive check (VPC) method (1000 replicates). […]
# [2] = dialysis patients, cited from earlier work
# [3] = cited from earlier work
# [4] = Population pharmacokinetic model of peginesatide plasma concentrations (NONMEM); type: in vivo, human; conditions: for Subcutaneous bioavailability (F1): fraction
# From the text: as §1
# The lower and upper limits of quantification for the assay were 25 and 600 ng/mL, respectively.
# The concentration of hemoglobin was measured using a standard laboratory method in a Clinical Laboratory Improvement Amendments certified central laboratory. Baseline weight was used to calculate the dose (in mg/kg). The first order conditional estimation (FOCE) and first-order (FO) method as implemented in NONMEM were used for PK and PK-PD modeling. Model selection criteria included a statistically significant reduction of the objective function value (OFV) (α = 0.05) for nested models, Akaike information criteria for non-nested models, reductions in both residual (σ^2) and inter-subject (ω^2) variability, improvement in the precision of parameter estimates as measured by the percent standard error of the mean (%SEM), and visual examination of standard goodness-of-fit plots.
# Several different PK models were evaluated as base structural PK models. These included: 1-compartment and 2-compartment with first-order absorption and elimination; 1-compartment and 2-compartment with first-order absorption and Michaelis-Menton (MM) elimination; and a combination of zero- and first-order absorption with linear and MM elimination. Life-span, negative-feedback and precursor-dependent Lifespan Indirect Response (LIDR) models were evaluated as potential base PK-PD models.
# In order to avoid possible multicollinearity issues, GAM analyses were performed for PK and PD parameters using different combinations of covariates that were deemed to be highly correlated (r>0.6) along with the remaining covariates. The potential covariates selected following GAM analysis were then tested using a standard approach of stepwise forward addition (P<0.05) followed by stepwise backward elimination procedure (P<0.005). […] The relationship between continuous covariates and PK and PD parameters were evaluated using linear, exponential and power functions as described in Equations 9, 10, and 11 with the covariates centered or scaled at their median values: [drawing 11] [drawing 12] [drawing 13]
# The adequacy of the final PK and PK-PD models was evaluated using a simulation-based prediction-corrected (pc) visual predictive check (VPC) method (1000 replicates). Due to the dose adjustment algorithm used in these trials, the pcVPC was utilized. This technique provides an enhanced ability to diagnose possible model misspecification by removing the variability introduced in an ordinary VPC when binning across a potentially large variability in dose or other influential covariates. The percent of observations outside the 90% prediction interval were also calculated to evaluate predictive ability of the model. A non-parametric bootstrap procedure (1000 bootstrap runs) was also employed to evaluate the precision of the parameter estimates and the robustness of the final PK and PK-PD models.
# Inter-individual variability (IIV) was estimated for volume of the central compartment (V2), the absorption rate constant (Ka) and the concentration required to reach 50% of maximum rate of elimination (KM) using exponential models, assuming a log-normal distribution for each parameter.
# hemoglobin [5] = conditions: PK-PD model estimates from different populations and structural models; cited from earlier work
# From the text: The estimates of red blood cell life span (67.5 days) obtained from this analysis are consistent with previously reported values in the literature (60 to 65 days in dialysis patients), [17].
# [6] = median bootstrap estimate, 935/1000 converged runs
# [7] = final population PK model, 672 CKD patients on/not on dialysis, IV or SC, final estimate (% SEM)
# [8] = final population PK model, SC, final estimate (% SEM)
# [9] = final population PK model, median bootstrap estimate, 870/1000 converged runs
substance,measurement,setting,value
peginesatide,Drug concentration required for 50% of maximum response (EC50),"hemoglobin [1]; 517 hemodialysis patients, IV or SC, plasma concentration, final estimate (% SEM)",401 (2.0) ng/mL
same,Drug concentration required for 50% of maximum response (EC50),hemoglobin [1]; [6],417 ng/mL
same,Maximum pharmacologic effect (Emax),hemoglobin [1]; [6],0.564
same,mean volume of distribution,"[2]; IV administration, mean ± standard deviation",0.0349 ± 0.0138 L/kg
same,accumulation,[2]; IV or SC administration every 4 weeks,No accumulation
same,bioavailability,[2]; SC administration,approximately 46%
same,time at which Cmax is reached,[2]; SC administration,approximately 48 hours
same,volume of distribution,[3]; healthy volunteers,0.035 L/kg
same,half-life (T1/2),"[3]; human, in vivo, sc",53.0 ± 17.7 h
same,effect of concomitant medications on PK or PD parameters,[4]; concomitant medications taken by >10% of the patient population during 80% of the trial period,did not alter
same,total volume of distribution,"[4]; estimated population value, IV and SC administration",0.043 L/kg
same,Central volume of distribution (V2),[4]; [7],35.6 (2.7) mL/kg
same,Concentration needed to reach 50% of Vmax (KM),[4]; [7],1880 (14.6) ng/mL
same,Maximum rate of elimination (Vmax),[4]; [7],45.3 (10.0) ng/mL/hr
same,Absorption rate constant (Ka),[4]; [8],0.00865 (15.6) 1/hr
same,Subcutaneous bioavailability (F1),[4]; [8],0.498 (4.4)
same,Peripheral volume of distribution (V3),"[4]; final population PK model, final estimate (% SEM)",7.44 (10.3) mL/kg
same,Subcutaneous bioavailability (F1),[4]; [9],0.499
same,Absorption rate constant (Ka),[4]; [9],0.00869 h⁻¹
same,Age slope for V2,[4]; [9],–0.125 L/yr
same,BMI power for V2,[4]; [9],–0.485
same,Central volume of distribution (V2),[4]; [9],35.6 mL/kg
same,Concentration needed to reach 50% of Vmax (KM),[4]; [9],1860 ng/mL
same,ETHN shift for Ka,[4]; [9],0.00815 (1/hr)
same,Maximum rate of elimination (Vmax),[4]; [9],44.7 ng/mL/h
same,Peripheral volume of distribution (V3),[4]; [9],7.42 mL/kg
same,TBILI slope for V2,[4]; [9],0.482 L/(g/L)
same,bioavailability after SC administration,"[4]; model estimated, final population PK model",approximately 50%
same,linearity of pharmacokinetics,"[4]; population PK model, over the evaluated dose range",non-linear pharmacokinetics
darbepoetin alfa,EC50,hemoglobin [5],0.41 ng/mL
same,Emax,hemoglobin [5],0.637
methoxy polyethylene glycol-epoetin beta [Micera],EC50,hemoglobin [5],0.898 ng/mL
same,Emax,hemoglobin [5],0.425
